Data: the supplement of paper PMC10724198
± gives the standard deviation of the averaged measurements.

Key:
[1] = system: Saccharomyces cerevisiae; assay: protein stability index of tFT-peptide fusion (C-terminal peptide) (PSI (0-1 scale)); higher = more stable (slower turnover); conditions: genetic background: wild type; temperature: 30 C
[2] = system: Saccharomyces cerevisiae; assay: as above
Method: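 MPS profiling in S. cerevisiae of the tFT-X12 degron library: putative degron peptides plus stable controls, 12 aa, fused to the C-terminus of a sfGFP-mCherry timer. Cells are FACS-sorted into 8 mCherry/sfGFP bins and deep-sequenced. PSI runs from 0 (unstable) to 1 (stable). Backgrounds are wild type, das1Δ and doa10Δ at 30 °C, and wild type, das1Δ, cdc34-1 and cdc53-1 at 37 °C; 2-3 technical replicates each.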

[3] = genetic background: cdc34-1, temperature: 37 C
[4] = genetic background: cdc53-1, temperature: 37 C
[5] = genetic background: das1 deletion, temperature: 30 C
[6] = genetic background: das1 deletion, temperature: 37 C
[7] = genetic background: doa10 deletion, temperature: 30 C
[8] = genetic background: wild type, temperature: 30 C
[9] = genetic background: wild type, temperature: 37 C
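Also: PSI is a weighted mean of sequencing reads over stability bins, variants kept only with over 10 reads, mCherry proximal and sfGFP distal, peptide attached via GGGS linker.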

Row | Sequence | protein stability index [1] | protein stability index [2, 3] | protein stability index [2, 4] | protein stability index [2, 5] | protein stability index [2, 6] | protein stability index [2, 7] | protein stability index [2, 8] | protein stability index [2, 9]
1 | WRVFRPSLRLFA | 0.393 ± 0.051 | 0.531 ± 0.04 | 0.61 ± 0.018 | 0.467 ± 0.017 | 0.598 ± 0.012 | 0.287 ± 0.0051 | 0.33 ± 0.021 | 0.507 ± 0.036
2 | WRMRCGLIIGLV | 0.183 ± 0.032 | 0.0313 ± 0.0029 | 0.0521 ± 0.023 | 0.155 ± 0.028 | 0.164 ± 0.0025 | 0.1 ± 0.025 | 0.134 ± 0.026 | 0.125 ± 0.018
3 | PSVRCVVACFIN | 0.277 ± 0.015 | 0.241 ± 0.021 | 0.584 ± 0.13 | 0.464 ± 0.02 | 0.576 ± 0.0068 | 0.137 ± 0.028 | 0.172 ± 0.039 | 0.165 ± 0.015
4 | ALEFLLLVCRRL | 0.418 ± 0.012 | 0.589 ± 0.026 | 0.621 ± 0.024 | 0.457 ± 0.011 | 0.6018 ± 0.0059 | 0.31 ± 0.026 | 0.334 ± 0.028 | 0.517 ± 0.013
5 | PFFFSFILVLFW | 0.264 ± 0.028 | 0.172 ± 0.0087 | 0.172 ± 0.036 | 0.219 ± 0.0092 | 0.286 ± 0.034 | 0.2355 ± 0.0021 | 0.186 ± 0.035 | 0.244 ± 0.02
6 | IVEVNCILMWIF | 0.4398 ± 0.00029 | 0.423 ± 0.024 | 0.489 ± 0.026 | 0.365 ± 0.021 | 0.532 ± 0.029 | 0.345 ± 0.037 | 0.369 ± 0.041 | 0.469 ± 0.044
7 | GLCSGTGARWLV | 0.559 ± 0.086 | 0.703 ± 0.0096 | 0.7667 ± 0.0022 | 0.636 ± 0.027 | 0.749 ± 0.018 | 0.52 ± 0.013 | 0.516 ± 0.0084 | 0.701 ± 0.016
8 | VFSAIPDWLILA | 0.453 ± 0.0079 | 0.492 ± 0.017 | 0.5094 ± 0.0035 | 0.387 ± 0.041 | 0.5492 ± 0.0043 | 0.279 ± 0.013 | 0.319 ± 0.016 | 0.462 ± 0.018
9 | FERKVHSRWLFF | 0.23 ± 0.038 | 0.56888 ± 0.00051 | 0.745 ± 0.022 | 0.658 ± 0.011 | 0.7407 ± 0.00086 | 0.0981 ± 0.019 | 0.15 ± 0.016 | 0.437 ± 0.018
10 | PISLYFVWFFFF | 0.195 ± 0.074 | 0.242 ± 0.0081 | 0.363 ± 0.033 | 0.251 ± 0.024 | 0.369 ± 0.04 | 0.15 ± 0.011 | 0.147 ± 0.0072 | 0.269 ± 0.015
11 | NFTDMGRSLYIN | 0.279 ± 0.057 | 0.592 ± 0.056 | 0.788 ± 0.018 | 0.663 ± 0.015 | 0.775 ± 0.0087 | 0.166 ± 0.0031 | 0.208 ± 0.054 | 0.434 ± 0.024
12 | CSRDVFLFIKFL | 0.132 ± 0.02 | 0.391 ± 0.023 | 0.544 ± 0.018 | 0.457 ± 0.0096 | 0.5679 ± 0.002 | 0.0736 ± 0.035 | 0.075 ± 0.019 | 0.127 ± 0.037
13 | SWFRRPFPPRLL | 0.158 ± 0.094 |  | 0.6 ± 0.025 | 0.606 ± 0.052 | 0.67 ± 0.063 | 0.048 ± 0.068 |  | 0.0127 ± 0.018
14 | VVTFLCPLVGHV | 0.478 ± 0.019 | 0.527 ± 0.023 | 0.501 ± 0.0074 | 0.372 ± 0.029 | 0.546 ± 0.012 | 0.341 ± 0.017 | 0.381 ± 0.013 | 0.507 ± 0.028
